From the supplement of paper PMC9112550, “Optimization of the antimicrobial peptide Bac7 by deep mutational scanning” (BMC Biology, 2022)

System: Escherichia coli TOP10
Test: shrunken log2 fold change of peptide-encoding DNA abundance (4.5 h post-induction vs induction); higher = less antimicrobial activity (less host growth inhibition)
Conditions: time post-induction: 4.5 h; library: site-saturation at positions 5, 18, 19, 20
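Also: peptides expressed intracellularly from a pBAD plasmid library in pooled LB shake-flask culture, induced with 0.3% L-arabinose, DNA abundance read by NGS, three biological replicates, DESeq2 with apeglm shrinkage.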

Sequence	shrunken log2 fold change
RRIRCRPPRLPRPRPRPACGPRP	0.323
RRIRCRPPRLPRPRPRPACTPRP	-0.00637
RRIRCRPPRLPRPRPRPACVPRP	0.211
RRIRCRPPRLPRPRPRPADAPRP	1.44
RRIRCRPPRLPRPRPRPAFEPRP	0.0704
RRIRCRPPRLPRPRPRPAGVPRP	0.259
RRIRCRPPRLPRPRPRPAHFPRP	0.147
RRIRCRPPRLPRPRPRPAHSPRP	-0.129
RRIRCRPPRLPRPRPRPAINPRP	-0.606
RRIRCRPPRLPRPRPRPAKRPRP	0.0702
RRIRCRPPRLPRPRPRPALHPRP	0.179
RRIRCRPPRLPRPRPRPAMLPRP	0.0443
RRIRCRPPRLPRPRPRPAMRPRP	0.509
RRIRCRPPRLPRPRPRPANKPRP	0.361
RRIRCRPPRLPRPRPRPANQPRP	-0.137
RRIRCRPPRLPRPRPRPAPHPRP	0.625
RRIRCRPPRLPRPRPRPAPMPRP	0.308
RRIRCRPPRLPRPRPRPAPPPRP	0.743
RRIRCRPPRLPRPRPRPARNPRP	-0.182
RRIRCRPPRLPRPRPRPARTPRP	0.359

Sequence	shrunken log2 fold change
RRIRCRPPRLPRPRPRPASKPRP	-0.438
RRIRCRPPRLPRPRPRPASPPRP	0.117
RRIRCRPPRLPRPRPRPAVQPRP	-0.0829
RRIRCRPPRLPRPRPRPAYMPRP	0.119
RRIRCRPPRLPRPRPRPCAFPRP	-0.311
RRIRCRPPRLPRPRPRPCCGPRP	-0.0934
RRIRCRPPRLPRPRPRPCCIPRP	-0.166
RRIRCRPPRLPRPRPRPCCSPRP	-0.321
RRIRCRPPRLPRPRPRPCDAPRP	-0.466
RRIRCRPPRLPRPRPRPCDTPRP	-0.0925
RRIRCRPPRLPRPRPRPCFGPRP	-0.137
RRIRCRPPRLPRPRPRPCFNPRP	0.713
RRIRCRPPRLPRPRPRPCFVPRP	-0.235
RRIRCRPPRLPRPRPRPCGFPRP	-0.29
RRIRCRPPRLPRPRPRPCGHPRP	-0.101
RRIRCRPPRLPRPRPRPCGQPRP	0.143
RRIRCRPPRLPRPRPRPCHNPRP	-0.734
RRIRCRPPRLPRPRPRPCILPRP	-1.1
RRIRCRPPRLPRPRPRPCIQPRP	0.0591
RRIRCRPPRLPRPRPRPCLRPRP	-0.229

Sequence	shrunken log2 fold change
RRIRCRPPRLPRPRPRPCLVPRP	-0.463
RRIRCRPPRLPRPRPRPCMFPRP	-0.625
RRIRCRPPRLPRPRPRPCNAPRP	-0.448
RRIRCRPPRLPRPRPRPCNEPRP	-0.514
RRIRCRPPRLPRPRPRPCNYPRP	-1.4
RRIRCRPPRLPRPRPRPCPHPRP	-0.235
RRIRCRPPRLPRPRPRPCQAPRP	-0.244
RRIRCRPPRLPRPRPRPCQGPRP	-0.0713
RRIRCRPPRLPRPRPRPCRKPRP	-0.0115
RRIRCRPPRLPRPRPRPCWMPRP	-0.404
RRIRCRPPRLPRPRPRPCWRPRP	0.252
RRIRCRPPRLPRPRPRPDAEPRP	1.03
RRIRCRPPRLPRPRPRPDAPPRP	0.515
RRIRCRPPRLPRPRPRPDATPRP	1.31
RRIRCRPPRLPRPRPRPDCVPRP	0.184
RRIRCRPPRLPRPRPRPDCYPRP	-0.0924
RRIRCRPPRLPRPRPRPDEAPRP	0.262
RRIRCRPPRLPRPRPRPDEDPRP	-0.0684
RRIRCRPPRLPRPRPRPDESPRP	0.153
RRIRCRPPRLPRPRPRPDFAPRP	0.115
